Values quoted from earlier work, collected in article PMC5371383.

Assays:
[1] = target: MC1R (Gallus gallus) (UniProt P55167)
[2] = target: MC1R (Homo sapiens) (UniProt Q01726)
UniProt Q01726, sequence (Q01726 whole entry): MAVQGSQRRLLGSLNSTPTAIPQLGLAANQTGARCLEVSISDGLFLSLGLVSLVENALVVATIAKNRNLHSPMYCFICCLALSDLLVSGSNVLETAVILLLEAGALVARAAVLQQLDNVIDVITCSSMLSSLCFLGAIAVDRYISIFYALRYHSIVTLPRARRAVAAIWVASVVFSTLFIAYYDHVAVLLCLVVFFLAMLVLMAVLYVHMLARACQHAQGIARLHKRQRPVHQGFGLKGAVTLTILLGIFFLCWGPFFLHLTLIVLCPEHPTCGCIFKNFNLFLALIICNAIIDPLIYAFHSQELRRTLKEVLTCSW

UniProt P55167, sequence (P55167 whole entry): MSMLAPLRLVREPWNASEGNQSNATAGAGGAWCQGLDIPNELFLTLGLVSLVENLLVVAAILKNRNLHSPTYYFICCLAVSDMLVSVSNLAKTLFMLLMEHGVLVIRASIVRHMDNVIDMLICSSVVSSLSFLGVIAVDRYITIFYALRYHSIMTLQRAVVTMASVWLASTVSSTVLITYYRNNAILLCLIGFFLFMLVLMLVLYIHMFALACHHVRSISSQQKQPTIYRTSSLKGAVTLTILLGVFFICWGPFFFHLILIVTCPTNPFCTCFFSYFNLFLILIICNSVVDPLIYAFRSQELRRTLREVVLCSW

α-MSH (from UniProt P01189)
Kd [1]: 363 nM
Kd [2]: 0.21 nM
